Residue numbers refer to the chain shown, from its start. Names may count otherwise.
Key:
[1] = target: the molecule itself; test: non-reducing SDS-PAGE immunoblot; conditioned media of transfected HEK293 cells, treated with 100 mM iodoacetamide, boiled in SDS, 12% gel, non-reducing; denaturing, shows disulfide-linked species only; two-colour detection of HA and FLAG
[2] = target: the molecule itself; test: AUC; sedimentation equilibrium, 25 °C, 20 mM Bis-Tris propane pH 7, 150 mM NaCl, with 0.5 mM CaCl2; monomer to trimer
[3] = target: the molecule itself; test: AUC; sedimentation equilibrium, 25 °C, 20 mM Bis-Tris propane pH 7, 150 mM NaCl, without Ca^2+; equilibrium constants are of monomer to dimer
[4] = target: the molecule itself; test: SEC; size exclusion chromatography in the presence and absence of Ca^2+, compared to wild-type C-Proα1(I)
[5] = target: the molecule itself; test: non-reducing SDS-PAGE immunoblot; cell lysate of transfected HEK293 cells (protein not secreted), non-reducing; denaturing, shows disulfide-linked species only

B1: wild-type, HA-tagged C-Proα1(I) (C-propeptide domain of human Colα1(I)) (domain or fragment)
chain: DDANVVRDRDLEVDTTLKSLSQQIENIRSPEGSRKNPARTCRDLKMCHSDWKSGEYWIDPNQGCNLDAIKVFCNMETGETCVYPTQPSVAQKNWYISKNPKDKRHVWFGESMTDGFQFEYGGQGSDPADVAIQLTFLRLMSTEASQNITYHCKNSVAYMDQQTGNLKKALLLQGSNEIEIRAEGNSRFTYSVTVDGCTSHTGAWGKTVIEYKTTKTSRLPIIDVAPLDVGAPDQEFGFDVGPVCFL
notes: C-propeptide (C-Pro) domain of human procollagen alpha1(I), from the endogenous C-proteinase cleavage site to the C-terminus; Secreted alone it is a disulfide-linked homotrimer; also called wild-type C-Proα1(I); Colα1(I) C-Pro; not shown: HA, N-terminal, kept
- stoichiometry N [1]: 3

B2: purified C2S (Cys1265Ser) C-Proα1(I), His tag cleaved (domain or fragment, human)
chain: B1 chain with C47S
modifications: glycosylated (a single N-glycosylation site in the polypeptide; site not given)
notes: C-propeptide (C-Pro) domain of human procollagen alpha1(I), from the endogenous C-proteinase cleavage site to the C-terminus; also called C2S C-Proα1(I); source: HEK293 Freestyle, transfected, secreted, purified (Ni-NTA, HRV-3C cleavage, second Ni-NTA, Superdex 200)
- stoichiometry N [2]: 3
- Ka [3]: 76300 M⁻¹
- stoichiometry N [3]: 2

B3: Asp1277His C-Proα1(I) (domain or fragment, human)
chain: B1 chain with D59H
notes: C-propeptide (C-Pro) domain of human procollagen alpha1(I) with the osteogenesis imperfecta-causing substitution Asp1277His
- stoichiometry N [4]: 2

B4: purified wild-type C-Proα1(I), His tag cleaved (domain or fragment, human)
chain: B1 chain
modifications: glycosylated (a single N-glycosylation site in the polypeptide; site not given)
notes: C-propeptide (C-Pro) domain of human procollagen alpha1(I), from the endogenous C-proteinase cleavage site to the C-terminus; The HA/FLAG vectors were modified to carry a cleavable 6x-His tag with an HRV-3C site; Interstrand disulfide-linked homotrimer; source: HEK293 Freestyle, transfected, secreted, purified (Ni-NTA, HRV-3C cleavage, second Ni-NTA, Superdex 200)
- stoichiometry N [3]: 3

B5: wild-type, HA-tagged C-Proα2(XI) (domain or fragment, human, UniProt P13942 1501-1736, looked up)
chain: IQPLPIQMPKKTRRSVDGSRLMQEDEAIPTGGAPGSPGGLEEIFGSLDSLREEIEQMRRPTGTQDSPARTCQDLKLCHPELPDGEYWVDPNQGCARDAFRVFCNFTAGGETCVTPRDDVTQFSYVDSEGSPVGVVQLTFLRLLSVSAHQDVSYPCSGAARDGPLRLRGANEDELSPETSPYVKEFRDGCQTQQGRTVLEVRTPVLEQLPVLDASFSDLGAPPRRGGVLLGPVCFMG
notes: C-propeptide (C-Pro) domain of human procollagen alpha2(XI); gene bought from Genewiz; source: HEK293, transfected, not secreted, in cell lysate; not shown: HA, N-terminal, kept
- stoichiometry N [5]: 3
